# B1: NPFYPEVEL (SEQ ID NO: 222) (peptide)
# peptide: NPFYPEVEL
# B2: VPLPAGGGTV (SEQ ID NO: 229) (peptide)
# peptide: VPLPAGGGTV
# B3: VPLPAGGGTVL (SEQ ID NO: 230) (peptide)
# peptide: VPLPAGGGTVL
# B4: RPAATAVISL (SEQ ID NO: 237) (peptide)
# peptide: RPAATAVISL
# B5: RIREHVPQL (SEQ ID NO: 245) (peptide)
# peptide: RIREHVPQL
# B6: RALLARLLL (SEQ ID NO: 247) (peptide)
# peptide: RALLARLLL
# B7: RVIDAVRFTL (SEQ ID NO: 253) (peptide)
# peptide: RVIDAVRFTL
# B8: YPQHPGLNA (SEQ ID NO: 260) (peptide)
# peptide: YPQHPGLNA
# B9: APSARVGVC (SEQ ID NO: 261) (peptide)
# peptide: APSARVGVC
# B10: MPLPWSLALP (SEQ ID NO: 271) (peptide)
# peptide: MPLPWSLALP
# B11: TPYQEHVAL (SEQ ID NO: 274) (peptide)
# peptide: TPYQEHVAL
# B12: APHPPLSVV (SEQ ID NO: 275) (peptide)
# peptide: APHPPLSVV
# B13: LPRAGGAFL (SEQ ID NO: 276) (peptide)
# peptide: LPRAGGAFL
# B14: SPARASPAL (SEQ ID NO: 279) (peptide)
# peptide: SPARASPAL
# B15: VPISEEGTPVL (SEQ ID NO: 280) (peptide)
# peptide: VPISEEGTPVL
# B16: MPQIETRVIL (SEQ ID NO: 282) (peptide)
# peptide: MPQIETRVIL
# B17: APREEQQRSL (SEQ ID NO: 287) (peptide)
# peptide: APREEQQRSL
# B18: SPQRLRGLLL (SEQ ID NO: 292) (peptide)
# peptide: SPQRLRGLLL
# B19: RPMQQARAQL (SEQ ID NO: 459) (peptide)
# peptide: RPMQQARAQL
# B20: VQQWSVAVF (SEQ ID NO: 7) (peptide)
# peptide: VQQWSVAVF
# B21: SYSSCYSF (SEQ ID NO: 14) (peptide)
# peptide: SYSSCYSF
# B22: TYNPDFSSL (SEQ ID NO: 16) (peptide)
# peptide: TYNPDFSSL
# B23: YYADKKTFIVL (SEQ ID NO: 17) (peptide)
# peptide: YYADKKTFIVL
# B24: SYEVRSTF (SEQ ID NO: 21) (peptide)
# peptide: SYEVRSTF
# B25: KSSVIASLLF (SEQ ID NO: 33) (peptide)
# peptide: KSSVIASLLF
# B26: KQMEDGHTLF (SEQ ID NO: 36) (peptide)
# peptide: KQMEDGHTLF
# B27: QYEPPSAPSTTF (SEQ ID NO: 40) (peptide)
# peptide: QYEPPSAPSTTF
# B28: LLIKLLQTF (SEQ ID NO: 54) (peptide)
# peptide: LLIKLLQTF
# B29: TYLSIFDQL (SEQ ID NO: 60) (peptide)
# peptide: TYLSIFDQL
# B30: NYAENILTL (SEQ ID NO: 61) (peptide)
# peptide: NYAENILTL
# B31: SYIGLPLTL (SEQ ID NO: 73) (peptide)
# peptide: SYIGLPLTL
# B32: SEDDPILQI (SEQ ID NO: 486) (peptide)
# peptide: SEDDPILQI
# B33: AEDQLHHSF (SEQ ID NO: 487) (peptide)
# peptide: AEDQLHHSF
# B34: KLAELEGALQK (SEQ ID NO: 202) (peptide)
# peptide: KLAELEGALQK
# B35: KVKDTPGLGK (SEQ ID NO: 203) (peptide)
# peptide: KVKDTPGLGK
# B36: AVFDKFIRY (SEQ ID NO: 204) (peptide)
# peptide: AVFDKFIRY
# B37: SLDGAARPK (SEQ ID NO: 205) (peptide)
# peptide: SLDGAARPK
# B38: KLIDLSQVMY (SEQ ID NO: 206) (peptide)
# peptide: KLIDLSQVMY
# B39: RSFNGLLTMY (SEQ ID NO: 207) (peptide)
# peptide: RSFNGLLTMY
# B40: GLASRILDAK (SEQ ID NO: 208) (peptide)
# peptide: GLASRILDAK
# B41: RTQIPMSEK (SEQ ID NO: 209) (peptide)
# peptide: RTQIPMSEK
# B42: ATSGVPVYK (SEQ ID NO: 210) (peptide)
# peptide: ATSGVPVYK
# B43: TVNPVAIHK (SEQ ID NO: 211) (peptide)
# peptide: TVNPVAIHK
# B44: KAYEQVMHY (SEQ ID NO: 212) (peptide)
# peptide: KAYEQVMHY
# B45: RTMSEAALVRK (SEQ ID NO: 214) (peptide)
# peptide: RTMSEAALVRK
# B46: MMFSGPQILKL (SEQ ID NO: 215) (peptide)
# peptide: MMFSGPQILKL
# B47: RILNQILYY (SEQ ID NO: 217) (peptide)
# peptide: RILNQILYY
# B48: RLRSSLVFK (SEQ ID NO: 219) (peptide)
# peptide: RLRSSLVFK
# B49: AINTSIKNK (SEQ ID NO: 453) (peptide)
# peptide: AINTSIKNK
# B50: KVYTPSISK (SEQ ID NO: 454) (peptide)
# peptide: KVYTPSISK
# B51: RIADIFVKK (SEQ ID NO: 455) (peptide)
# peptide: RIADIFVKK
# B52: SMFTAILKK (SEQ ID NO: 456) (peptide)
# peptide: SMFTAILKK
# B53: SINKPTSER (SEQ ID NO: 457) (peptide)
# peptide: SINKPTSER
# B54: GIADFVLKY (SEQ ID NO: 458) (peptide)
# peptide: GIADFVLKY
# Target: T1, HLA-B*07 (human)
# T1 construct: MHC monomer made peptide-receptive by UV cleavage of a UV-sensitive ligand; also called peptide-receptive MHC class I monomer
# Experiment: UV peptide-exchange ELISA; +++ = yield >50%
row,Binder,peptide exchange yield [%]
1,B1,50 to 75
2,B2,50 to 75
3,B3,50 to 75
4,B4,50 to 75
5,B5,50 to 75
6,B6,50 to 75
7,B7,50 to 75
8,B8,50 to 75
9,B9,50 to 75
10,B10,50 to 75
11,B11,50 to 75
12,B12,50 to 75
13,B13,50 to 75
14,B14,50 to 75
15,B15,50 to 75
16,B16,50 to 75
17,B17,50 to 75
18,B18,50 to 75
19,B19,50 to 75

# Target: T2, HLA-A*24 (human)
# T2 construct: MHC monomer made peptide-receptive by UV cleavage of a UV-sensitive ligand; also called peptide-receptive MHC class I monomer
# Experiment: UV peptide-exchange ELISA; +++ = yield >50%
row,Binder,peptide exchange yield [%]
1,B20,50 to 75
2,B21,50 to 75
3,B22,50 to 75
4,B23,50 to 75
5,B24,50 to 75
6,B25,50 to 75
7,B26,50 to 75
8,B27,50 to 75
9,B28,50 to 75
10,B29,50 to 75
11,B30,50 to 75
12,B31,50 to 75

# Target: T3, HLA-B*44 (human)
# T3 construct: MHC monomer made peptide-receptive by UV cleavage of a UV-sensitive ligand; also called peptide-receptive MHC class I monomer
# Experiment: UV peptide-exchange ELISA; +++ = yield >50%
row,Binder,peptide exchange yield [%]
1,B32,50 to 75
2,B33,50 to 75

# Target: T4, HLA-A*03 (human)
# T4 construct: MHC monomer made peptide-receptive by UV cleavage of a UV-sensitive ligand; also called peptide-receptive MHC class I monomer
# Experiment: UV peptide-exchange ELISA; ++++ = yield >75%
row,Binder,peptide exchange yield [%]
1,B34,> 75
2,B35,> 75
3,B36,> 75
4,B37,> 75
5,B38,> 75
6,B39,> 75
7,B40,> 75
8,B41,> 75
9,B42,> 75
10,B43,> 75
11,B44,> 75
12,B45,> 75
13,B46,> 75
14,B47,> 75
15,B48,> 75
16,B49,> 75
17,B50,> 75
18,B51,> 75
19,B52,> 75
20,B53,> 75
21,B54,> 75
